Target: S1P3 receptor (UniProt Q99500)
Sequence (Q99500 whole entry): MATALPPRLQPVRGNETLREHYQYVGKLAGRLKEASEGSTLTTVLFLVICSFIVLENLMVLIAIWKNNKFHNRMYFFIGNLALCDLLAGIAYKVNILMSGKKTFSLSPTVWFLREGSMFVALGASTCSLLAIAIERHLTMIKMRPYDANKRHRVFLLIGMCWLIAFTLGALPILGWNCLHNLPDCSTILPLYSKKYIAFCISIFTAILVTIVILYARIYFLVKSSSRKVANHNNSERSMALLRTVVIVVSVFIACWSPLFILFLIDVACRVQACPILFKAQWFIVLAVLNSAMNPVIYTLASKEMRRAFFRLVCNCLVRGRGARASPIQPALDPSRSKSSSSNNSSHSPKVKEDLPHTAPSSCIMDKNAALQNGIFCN

recombinant active Src
in vitro tyrosine phosphorylation of isolated S1P3 receptor (immunoblot): Src tyrosine phosphorylation of the S1P3 receptor

From patent US20080194611
